Reference: publication PMC9365698 (2022)

Key:
Experiment in all cases: SPR
PI16 = biological target: T1, PI16 (Homo sapiens)
T1 chain: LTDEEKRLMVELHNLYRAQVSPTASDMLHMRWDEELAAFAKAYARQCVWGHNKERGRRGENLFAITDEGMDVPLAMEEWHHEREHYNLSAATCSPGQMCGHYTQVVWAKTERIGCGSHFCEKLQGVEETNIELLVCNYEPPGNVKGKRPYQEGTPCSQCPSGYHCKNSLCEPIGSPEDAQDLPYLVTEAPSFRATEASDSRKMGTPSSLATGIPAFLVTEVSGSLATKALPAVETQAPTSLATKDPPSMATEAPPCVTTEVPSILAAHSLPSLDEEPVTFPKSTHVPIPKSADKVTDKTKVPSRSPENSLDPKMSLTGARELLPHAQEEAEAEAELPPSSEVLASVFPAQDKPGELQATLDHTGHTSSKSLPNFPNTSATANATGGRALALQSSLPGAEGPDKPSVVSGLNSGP

CNTN1 = biological target: T2, CNTN1 (human, UniProt Q12860 21-993, biotin on the biotin-acceptor site (enzymatic, co-transfected BirA))
T2 chain: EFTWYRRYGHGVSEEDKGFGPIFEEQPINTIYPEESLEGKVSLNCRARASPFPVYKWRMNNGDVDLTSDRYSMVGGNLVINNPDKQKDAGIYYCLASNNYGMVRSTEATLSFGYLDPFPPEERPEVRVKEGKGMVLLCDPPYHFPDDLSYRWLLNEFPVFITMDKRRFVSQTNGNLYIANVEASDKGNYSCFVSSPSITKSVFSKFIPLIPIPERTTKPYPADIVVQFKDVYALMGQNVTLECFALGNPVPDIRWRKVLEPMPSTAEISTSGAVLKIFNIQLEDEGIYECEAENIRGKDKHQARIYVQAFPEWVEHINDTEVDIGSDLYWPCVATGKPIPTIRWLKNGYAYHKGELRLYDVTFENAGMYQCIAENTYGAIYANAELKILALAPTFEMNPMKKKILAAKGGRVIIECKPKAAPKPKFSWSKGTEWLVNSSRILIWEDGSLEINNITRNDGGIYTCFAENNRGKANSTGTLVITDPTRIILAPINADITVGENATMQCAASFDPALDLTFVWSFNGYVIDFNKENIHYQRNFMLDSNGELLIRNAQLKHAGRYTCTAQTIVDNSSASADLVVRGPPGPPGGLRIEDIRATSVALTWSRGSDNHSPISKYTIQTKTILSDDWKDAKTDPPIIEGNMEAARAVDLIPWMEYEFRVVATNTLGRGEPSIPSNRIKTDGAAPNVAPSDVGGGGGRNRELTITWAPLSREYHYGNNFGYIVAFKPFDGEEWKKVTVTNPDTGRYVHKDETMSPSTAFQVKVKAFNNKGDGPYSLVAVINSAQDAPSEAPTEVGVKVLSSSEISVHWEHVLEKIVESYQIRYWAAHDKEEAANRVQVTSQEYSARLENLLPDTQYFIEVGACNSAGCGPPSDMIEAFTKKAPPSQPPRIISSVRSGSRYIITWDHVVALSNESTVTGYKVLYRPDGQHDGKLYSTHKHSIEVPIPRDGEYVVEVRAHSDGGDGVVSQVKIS

PVR = biological target: T3, PVR (human, UniProt P15151 21-343, biotin on the biotin-acceptor site (enzymatic, co-transfected BirA))
T3 chain: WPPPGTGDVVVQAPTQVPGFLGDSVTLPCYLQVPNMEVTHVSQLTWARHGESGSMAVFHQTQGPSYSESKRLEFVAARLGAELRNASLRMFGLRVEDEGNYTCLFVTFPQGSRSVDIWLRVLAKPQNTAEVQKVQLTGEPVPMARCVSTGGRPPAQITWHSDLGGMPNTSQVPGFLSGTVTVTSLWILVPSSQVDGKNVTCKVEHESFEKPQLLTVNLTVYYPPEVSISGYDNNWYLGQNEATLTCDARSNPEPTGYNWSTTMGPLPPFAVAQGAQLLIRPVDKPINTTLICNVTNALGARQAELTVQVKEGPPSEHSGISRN

TNR16 = biological target: T4, TNR16 (Homo sapiens)
T4 chain: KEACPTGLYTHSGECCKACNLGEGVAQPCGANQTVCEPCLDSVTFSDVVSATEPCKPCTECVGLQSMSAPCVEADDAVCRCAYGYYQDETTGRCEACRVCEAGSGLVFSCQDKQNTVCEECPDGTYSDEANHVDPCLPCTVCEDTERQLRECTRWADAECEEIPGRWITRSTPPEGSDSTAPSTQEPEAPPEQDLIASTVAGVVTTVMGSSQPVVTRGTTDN

JAG1 = JAG1 (human, UniProt P78504 34-1067, biotin on the biotin-acceptor site (enzymatic, co-transfected BirA))
FGFR2 = FGFR2 (Homo sapiens)
CDH2 = biological target: T5, CDH2 (Homo sapiens)
T5 chain: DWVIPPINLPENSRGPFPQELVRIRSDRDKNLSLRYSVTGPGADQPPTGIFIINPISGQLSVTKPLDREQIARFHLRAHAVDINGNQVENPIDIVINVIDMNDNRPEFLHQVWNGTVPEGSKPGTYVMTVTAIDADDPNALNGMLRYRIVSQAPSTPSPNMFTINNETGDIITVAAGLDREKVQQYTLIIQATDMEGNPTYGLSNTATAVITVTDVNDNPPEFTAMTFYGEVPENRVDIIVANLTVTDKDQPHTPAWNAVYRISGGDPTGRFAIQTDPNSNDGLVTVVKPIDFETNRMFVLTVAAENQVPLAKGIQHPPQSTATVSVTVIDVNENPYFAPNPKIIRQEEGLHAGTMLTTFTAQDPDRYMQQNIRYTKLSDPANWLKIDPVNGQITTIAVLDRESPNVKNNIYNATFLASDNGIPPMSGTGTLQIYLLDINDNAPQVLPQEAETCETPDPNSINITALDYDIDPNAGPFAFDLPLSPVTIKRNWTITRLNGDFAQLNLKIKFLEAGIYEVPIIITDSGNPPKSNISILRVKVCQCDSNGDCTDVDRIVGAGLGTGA

SPR = biological target: the molecule itself

B1: TNR21 (protein)
chain: QPEQKASNLIGTYRHVDRATGQVLTCDKCPAGTYVSEHCTNTSLRVCSSCPVGTFTRHENGIEKCHDCSQPCPWPMIEKLPCAALTDRECTCPPGMFQSNATCAPHTVCPVGWGVRKKGTETEDVRCKQCARGTFSDVPSSVMKCKAYTDCLSQNLVVIKPGTKETDNVCGTLPSFSSSTSPSPGTAIFPRPEHMETHEVPSSTYVPKGMNSTESNSSASVRPKVLSSIQEGTVPDNTSSARGKEDVNKTLPNLQVVNHQQGPHHRHILKLLPSMEATGGEKSSTPIKGPKRGHPRQNLHKHFDINEH
B1 was tested, and the koff (PI16) was ~2 s⁻¹.

B2: NRCAM (protein)
chain: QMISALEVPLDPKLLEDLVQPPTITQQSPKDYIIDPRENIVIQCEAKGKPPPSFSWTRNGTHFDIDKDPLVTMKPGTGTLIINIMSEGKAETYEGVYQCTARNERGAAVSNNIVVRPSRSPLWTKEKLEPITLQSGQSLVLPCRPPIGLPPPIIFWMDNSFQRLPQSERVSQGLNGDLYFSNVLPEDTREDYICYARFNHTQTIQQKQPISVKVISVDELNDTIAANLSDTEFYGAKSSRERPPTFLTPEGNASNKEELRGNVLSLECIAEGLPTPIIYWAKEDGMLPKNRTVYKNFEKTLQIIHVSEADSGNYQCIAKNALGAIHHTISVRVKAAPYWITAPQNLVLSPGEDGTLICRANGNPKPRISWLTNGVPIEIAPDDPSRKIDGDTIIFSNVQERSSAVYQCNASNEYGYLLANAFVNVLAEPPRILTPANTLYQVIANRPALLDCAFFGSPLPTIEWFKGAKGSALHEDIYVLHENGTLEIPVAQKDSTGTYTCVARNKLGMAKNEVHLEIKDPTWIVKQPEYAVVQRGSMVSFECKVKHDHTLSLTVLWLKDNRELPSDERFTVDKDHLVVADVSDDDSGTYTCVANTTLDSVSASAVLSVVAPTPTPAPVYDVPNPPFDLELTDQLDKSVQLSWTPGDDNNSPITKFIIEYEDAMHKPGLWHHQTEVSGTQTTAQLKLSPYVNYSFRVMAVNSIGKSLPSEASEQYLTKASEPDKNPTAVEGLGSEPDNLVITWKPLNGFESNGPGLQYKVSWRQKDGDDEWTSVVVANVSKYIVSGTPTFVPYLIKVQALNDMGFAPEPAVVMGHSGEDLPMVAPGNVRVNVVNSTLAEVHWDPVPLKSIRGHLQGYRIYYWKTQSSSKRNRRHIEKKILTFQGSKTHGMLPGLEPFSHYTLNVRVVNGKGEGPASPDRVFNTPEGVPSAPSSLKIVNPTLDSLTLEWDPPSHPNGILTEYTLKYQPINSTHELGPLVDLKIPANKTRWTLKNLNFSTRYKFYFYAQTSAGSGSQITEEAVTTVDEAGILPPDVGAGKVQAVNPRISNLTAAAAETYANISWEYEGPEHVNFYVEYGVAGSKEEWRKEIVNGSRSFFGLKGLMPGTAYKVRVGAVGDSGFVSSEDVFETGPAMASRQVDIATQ
With B2 the koff (CNTN1) was ~0.7 s⁻¹.

B3: KIR2DL5A (receptor)
chain: HEGGQDKPLLSAWPSAVVPRGGHVTLLCRSRLGFTIFSLYKEDGVPVPELYNKIFWKSILMGPVTPAHAGTYRCRGSHPRSPIEWSAPSNPLVIVVTGLFGKPSLSAQPGPTVRTGENVTLSCSSRSSFDMYHLSREGRAHEPRLPAVPSVNGTFQADFPLGPATHGGTYTCFGSLHDSPYEWSDPSDPLLVSVTGNSSSSSSSPTEPSSKTGIRRH
modifications: biotin on the biotin-acceptor site (enzymatic, co-transfected BirA)
For B3, the koff (PVR) was ~0.9 s⁻¹.

B4: CD80 (protein)
chain: VIHVTKEVKEVATLSCGHNVSVEELAQTRIYWQKEKKMVLTMMSGDMNIWPEYKNRTIFDITNNLSIVILALRPSDEGTYECVVLKYEKDAFKREHLAEVTLSVKADFPTPSISDFEIPTSNIRRIICSTSGGFPEPHLSWLENGEELNAINTTVSQDPETELYAVSSKLDFNMTTNHSFMCLIKYGHLRVNQTFNWNTTKQEHFPDN
B4 showed a koff (TNR16) of ~1.4 s⁻¹.

B5: VASN (receptor)
chain: CPSGCQCSQPQTVFCTARQGTTVPRDVPPDTVGLYVFENGITMLDAGSFAGLPGLQLLDLSQNQIASLPSGVFQPLANLSNLDLTANRLHEITNETFRGLRRLERLYLGKNRIRHIQPGAFDTLDRLLELKLQDNELRALPPLRLPRLLLLDLSHNSLLALEPGILDTANVEALRLAGLGLQQLDEGLFSRLRNLHDLDVSDNQLERVPPVIRGLRGLTRLRLAGNTRIAQLRPEDLAGLAALQELDVSNLSLQALPGDLSGLFPRLRLLAAARNPFNCVCPLSWFGPWVRESHVTLASPEETRCHFPPKNAGRLLLELDYADFGCPATTTTATVPTTRPVVREPTALSSSLAPTWLSPTEPATEAPSPPSTAPPTVGPVPQPQDCPPSTCLNGGTCHLGTRHHLACLCPEGFTGLYCESQMGQGTRPSPTPVTPRPPRSLTLGIEPVSPTSLRVGLQRYLQGSSVQLRSLRLTYRNLSGPDKRLVTLRLPASLAEYTVTQLRPNATYSVCVMPLGPGRVPEGEEACGEAHTPPAVHSNHAPVTQAREGNLP
modifications: biotin on the biotin-acceptor site (enzymatic, co-transfected BirA)
B5 showed a koff (JAG1) of ~0.1 s⁻¹.

B6: FCER2 (protein)
chain: DTTQSLKQLEERAARNVSQVSKNLESHHGDQMAQKSQSTQISQELEELRAEQQRLKSQDLELSWNLNGLQADLSSFKSQELNERNEASDLLERLREEVTKLRMELQVSSGFVCNTCPEKWINFQRKCYYFGKGTKQWVHARYACDDMEGQLVSIHSPEEQDFLTKHASHTGSWIGLRNLDLKGEFIWVDGSHVDYSNWAPGEPTSRSQGEDCVMMRGSGRWNDAFCDRKLGAWVCDRLATCTPPASEGSAESMGPDSRPDPDGRLPTPSAPLHS
B6 was tested, and the koff (FGFR2) was ~0.01 s⁻¹.

B7: FCER2 (protein)
chain: DTTQSLKQLEERAARNVSQVSKNLESHHGDQMAQKSQSTQISQELEELRAEQQRLKSQDLELSWNLNGLQADLSSFKSQELNERNEASDLLERLREEVTKLRMELQVSSGFVCNTCPEKWINFQRKCYYFGKGTKQWVHARYACDDMEGQLVSIHSPEEQDFLTKHASHTGSWIGLRNLDLKGEFIWVDGSHVDYSNWAPGEPTSRSQGEDCVMMRGSGRWNDAFCDRKLGAWVCDRLATCTPPASEGSAESMGPDSRPDPDGRLPTPSAPLHS
modifications: propeptide assumed removed
For B7, the koff (CDH2) was ~0.6 s⁻¹.

B8: MPZL1 (protein)
chain: SALEVYTPKEIFVANGTQGKLTCKFKSTSTTGGLTSVSWSFQPEGADTTVSFFHYSQGQVYLGNYPPFKDRISWAGDLDKKDASINIENMQFIHNGTYICDVKNPPDIVVQPGHIRLYVVEKENLPV
B8 showed a koff (SPR) of ~0.6 s⁻¹.
